In publication PMC7367873, “Dissecting the sequence determinants for dephosphorylation by the catalytic subunits of phosphatases PP1 and PP2A” (Nature Communications, 2020):

B1: RPN2 (protein, UniProt P04844 23-631, looked up)
Dolichyl-diphosphooligosacchar …: LTPTHYLTKHDVERLKASLDRPFTNLESAFYSIVGLSSLGAQVPDAKKACTYIRSNLDPSNVDSLFYAAQASQALSGCEISISNETKDLLLAAVSEDSSVTQIYHAVAALSGFGLPLASQEALSALTARLSKEETVLATVQALQTASHLSQQADLRSIVEEIEDLVARLDELGGVYLQFEEGLETTALFVAATYKLMDHVGTEPSIKEDQVIQLMNAIFSKKNFESLSEAFSVASAAAVLSHNRYHVPVVVVPEGSASDTHEQAILRLQVTNVLSQPLTQATVKLEHAKSVASRATVLQKTSFTPVGDVFELNFMNVKFSSGYYDFLVEVEGDNRYIANTVELRVKISTEVGITNVDLSTVDKDQSIAPKTTRVTYPAKAKGTFIADSHQNFALFFQLVDVNTGAELTPHQTFVRLHNQKTGQEVVFVAEPDNKNVYKFELDTSERKIEFDSASGTYTLYLIIGDATLKNPILWNVADVVIKFPEEEAPSTVLSQNLFTPKQEIQHLFREPEKRPPTVVSNTFTALILSPLLLLFALWIRIGANVSNFTFAPSTIIFHLGHAAMLGLMYVYWTQLNMFQTLKYLAILGSVTFLAGNRMLAQQAVKRTAH
B2: U2SURP (protein, UniProt O15042 2-1029, looked up)
U2 snRNP-associated SURP …: ADKTPGGSQKASSKTRSSDVHSSGSSDAHMDASGPSDSDMPSRTRPKSPRKHNYRNESARESLCDSPHQNLSRPLLENKLKAFSIGKMSTAKRTLSKKEQEELKKKEDEKAAAEIYEEFLAAFEGSDGNKVKTFVRGGVVNAAKEEHETDEKRGKIYKPSSRFADQKNPPNQSSNERPPSLLVIETKKPPLKKGEKEKKKSNLELFKEELKQIQEERDERHKTKGRLSRFEPPQSDSDGQRRSMDAPSRRNRSSGVLDDYAPGSHDVGDPSTTNLYLGNINPQMNEEMLCQEFGRFGPLASVKIMWPRTDEERARERNCGFVAFMNRRDAERALKNLNGKMIMSFEMKLGWGKAVPIPPHPIYIPPSMMEHTLPPPPSGLPFNAQPRERLKNPNAPMLPPPKNKEDFEKTLSQAIVKVVIPTERNLLALIHRMIEFVVREGPMFEAMIMNREINNPMFRFLFENQTPAHVYYRWKLYSILQGDSPTKWRTEDFRMFKNGSFWRPPPLNPYLHGMSEEQETEAFVEEPSKKGALKEEQRDKLEEILRGLTPRKNDIGDAMVFCLNNAEAAEEIVDCITESLSILKTPLPKKIARLYLVSDVLYNSSAKVANASYYRKFFETKLCQIFSDLNATYRTIQGHLQSENFKQRVMTCFRAWEDWAIYPEPFLIKLQNIFLGLVNIIEEKETEDVPDDLDGAPIEEELDGAPLEDVDGIPIDATPIDDLDGVPIKSLDDDLDGVPLDATEDSKKNEPIFKVAPSKWEAVDESELEAQAVTTSKWELFDQHEESEEEENQNQEEESEDEEDTQSSKSEEHHLYSNPIKEEMTESKFSKYSEMSEEKRAKLREIELKVMKFQDELESGKRPKKPGQSFQEQVEHYRDKLLQREKEKELERERERDKKDKEKLESRSKDKKEKDECTPTRKERKRRHSTSPSPSRSSSGRRVKSPSPKSERSERSERSHKESSRSRSSHKDSPRDVSKKAKRSPSGSRTPKRSRRSRSRSPKKSGKKSRSQSRSPHRSHKKSKKNKH

Assays:
GFP-14-3-3β = GFP-14-3-3β co-IP with LC-MS/MS, untreated GFP-14-3-3β versus GFP control (14-3-3 interactome); assay type: binding, human; conditions: label-free quantification
[1] = tested on: GFP-14-3-3β and its binding proteins; assay: GFP-14-3-3β co-IP with LC-MS/MS label-free quantification, untreated versus PP1c-treated; set-up: species or system human; conditions: label-free quantification

Molecule	Difference (log2), untreated vs GFP (GFP-14-3-3β; log2 difference, pairwise comparison untreated vs GFP, 3 replicates each)	Difference (log2), PP1 vs untreated ([1]; log2 difference, pairwise comparison PP1 vs untreated, 3 replicates each)	Difference (log2), untreated vs GFP (GFP-14-3-3β; untreated vs GFP)	Difference (log2), PP1 vs untreated ([1]; PP1 vs untreated)
B1	-1.824	2.419	–	–
B2	–	–	0.6 log2	0.8713 log2
